The source of these data is US20210380994A1, “LACTOCOCCUS LACTIS EXPRESSION SYSTEM FOR DELIVERING PROTEINS EFFICACIOUS FOR THE TREATMENT OF EPITHELIAL BARRIER FUNCTION DISORDERS” (Second Genome, Inc., priority 2018, published 2021).

Data set [1] in a line: PTM of SG-11 versus SG-11V5 after storage, LC-MS/MS (Example 10). It counts as physicochemical. How it is done: For this analysis, PTMs of wildtype SG-11 (SEQ ID NO:7) and SG-11V5 (SEQ ID NO:19) were compared. In the first analysis (results provided in Table 10 below), the proteins were stored at a concentration of 1 mg/ml in Buffer 1 (50 mM NaPO4, pH 8, 150 mM NaCl, 10% glycerol) and stored for 2 weeks at either 4° C. or 40° C. The proteins were then treated with DTT and Iodoacetamide (IAA), followed by trypsin digestion. The digested samples were then analyzed by Waters ACQUITY UPLC couples to Xevo G2-XS QTOF mass spectrometer using a Protein BEH C18 column.
In a second analysis, the SG-11 (SEQ ID NO:7) and SG-11V5 (SEQ ID NO:19) proteins were each stored at 40° C. in a variety of buffers. The storage buffer used in this experiment was 100 mM NaPO4, pH7, with 10% sorbitol (+Sor) or without 10% sorbitol (−Sor) and with 10% glycerol (+Gly) or without 10% glycerol (−Gly) as indicated in Table 11. […] There were also differences in levels of N137 deamidation for the two proteins with the presence of at least glycerol and also the presence of both sorbitol and glycerol resulting in large decreases in N137 deamidation.

Data set [2] deals with human colonic epithelial cells (HCT8 enterocytes and HT29-MTX goblet cells). The data set is described as follows: trans-epithelial electrical resistance (TEER) assay, epithelial/monocyte co-culture disrupted by heat killed E. coli. In kind it is cell-based. As to the method:
Assays were performed as described below in trans-well plates where co-cultures of multiple cell types were performed utilizing a permeable membrane to separate cells. In the apical (top) chamber, human colonic epithelial cells, consisting of a mixture of enterocytes and goblet cells, were cultured until cells obtained tight junction formation and barrier function capacity as assessed by measurement of trans-epithelial electrical resistance (TEER). In the basolateral chamber, monocytes were cultured separately. Epithelial […] were primed with inflammatory cytokines. The assays measured the effect of a therapeutic protein, e.g., SG-11, on epithelial barrier function, muc2 gene expression, and production of cytokines.
Cell culture. The HCT8 human enterocyte cell line (ATCC Cat. No. CCL-244) was maintained in RPMI-1640 medium supplemented with 10% fetal bovine seam, 100 IU/ml penicillin, 100 ? g/ml streptomycin, 10 ? g/ml gentamicin and 0.25 μg/ml amphotericin (cRPMI). HT29-MTX human goblet cells (Sigma-Aldrich (St. Louis, Mo.; Cat. No. 12040401) were maintained in DMEM medium with 10% fetal bovine serum, 100 IU/ml penicillin, 100 ? g/ml streptomycin, 10 ? g/ml gentamicin and 0.25 μg/ml amphotericin (cDMEM). Epithelial cells were passaged by trypsinization and were used between 5 and 15 passages following thawing from liquid nitrogen stocks. U937 monocytes (ATCC Cat. No. 700928) were maintained in cRPMI medium as a suspension culture, and split by dilution as needed to maintain cells between 5×10^5 and 2×10^6 cell/ml. U937 cells were used up to passage 18 following thawing from liquid nitrogen stocks.
Epithelial cell culture. A mixture of HCT8 enterocytes and HT29-MTX goblet cells were plated at a 9:1 ratio, respectively, in the apical chamber of the transwell plate as described previously (Berget et al., 2017, Int J Mol Sci, 18:1573; Beduneau et al., 2014. Eur J Pharm Biopharm, 87:290-298). A total of 10^5 cells were plated in each well (9×10^4 HCT cells and 1×10^4 HT29-MTX cells per well). Epithelial cells were trypsinized from culture flasks and viable cells determined by trypan blue counting. The correct volumes of each cell type were combined in a single tube and centrifuged. The cell pellet was resuspended in cRPMI and added to the apical chamber of the transwell plate. Celle were cultured for 8 to 10 days at 37° C.+5% CO2, and media was changed every 2 days.
Monocyte culture. On day 6 of epithelial cell culture 2×10^5 cells/well U937 monocytes were plated into a 96 well receiver plate. Cells were cultured at 37° C.+5% CO2 and media was changed every 24 hours for four days.
Co-culture assay. Following 8-10 days of culture, 10 ng/ml IFN-© was added to the basolateral chamber of the transwell plate containing enterocytes, for 24 hours at 37° C.+5% CO2. After 24 hours, fresh cRPMI was added to the epithelial cell culture plate. TEER readings were measured after the IFN-© treatment and were used as the pre-treatment TEER value. SG-11 was then added to the apical chamber of the transwell plate at a final concentration of 1 ? g/ml (40 nM). The myosin light chain kinase (MLCK) inhibitor peptide 18 (BioTechne, Minneapolis, Minn.) was used at 50 nM as a positive control to prevent inflammation induced barrier disruption (Zolotarevsky et al., 2002, Gastroenterology. 123:163-172). […]

The mark [3] stands for this setting: 1 mg/ml in Buffer 1 (50 mM NaPO4, pH 8, 150 mM NaCl, 10% glycerol), 2 weeks at 4° C.
Where [4] appears, read: 1 mg/ml in Buffer 1, 2 weeks at 4° C.
[5] abbreviates: 1 mg/ml in Buffer 1, 2 weeks at 40° C.
Where [6] appears, read: 40° C., 100 mM NaPO4, pH7, + Sor − Gly.
Where [7] appears, read: 40° C., 100 mM NaPO4, pH7, + Sor − Sly (so in the source).
[8] abbreviates: 40° C., 100 mM NaPO4, pH7, − Sor − Gly (first column).
[9] abbreviates: 40° C., 100 mM NaPO4, pH7, − Sor − Gly (third column as printed).
[10] abbreviates: Example 12, 1 μg/ml (40 nM), 6 hours pre-incubation, SG-11 = SEQ ID NO:9, HK E. coli alone 78.6%, FIG. 17.

B1: SG-11V5: variant of SEQ ID NO:7 with N53S, N83S, C147V, C151S (protein)
chain: MLEGEESVVYVGKKGVIASLDVETLDQSYYDETELKSYVDAEVEDYTAEHGKSAVKVESLKVEDGVAKLKMKYKTPEDYTAFSGIELYQGKVVASLAAGYVYDGEFARVEEGKVVGAATKQDIYSEDDLKVAIIRANTDVKVDGEIVYVSSQNVKLTGKDSVSIRDGYYLETGSVTASVDVTGQESVGTEQLSGTEQMEMTGEPVNADDTEQTEAAAGDGSFETDVYTFIVYK
modifications: Artificial variant of SG-11 (N53S, N83S, C147V, C151S)
Consider B1, for which the “Oxidation of M1” value is on record as 2.5% in data set [1] (setting [3]); 4.7% in data set [1] (setting [5]); 3.3% in data set [1] (setting [6]); 5.9% in data set [1] (setting [7]); 2.7% in data set [1] (setting [8]); 5.6% in data set [1] (setting [9]). Further, the “Deamidation of N137” value in data set [1] (setting [4]) stood at 0.1%; in data set [1] (setting [5]), 0.3%; in data set [1] (setting [6]) it was 3.3%; in data set [1] (setting [7]) it was 0.1%; in data set [1] (setting [8]), 1.5%; in data set [1] (setting [9]), 0.4%. The “TEER following disruption by HK E. coli” value in data set [2] (setting [10]) is recorded as 89.1%.

B2: SG-11: Roseburia hominis protein comprising SEQ ID NO:3; tested as SEQ ID NO:5, SEQ ID NO:7 or FLAG-tagged SEQ ID NO:9 (protein, listed as Rosburia hominis)
chain: LEGEESVVYVGKKGVIASLDVETLDQSYYDETELKSYVDAEVEDYTAEHGKNAVKVESLKVEDGVAKLKMKYKTPEDYTAFNGIELYQGKVVASLAAGYVYDGEFARVEEGKVVGAATKQDIYSEDDLKVAIIRANTDVKVDGEICYVSCQNVKLTGKDSVSIRDGYYLETGSVTASVDVTGQESVGTEQLSGTEQMEMTGEPVNADDTEQTEAAAGDGSFETDVYTFIVYK
For B2, the “Oxidation of M1” value in data set [1] (setting [3]) is 8.9%; in data set [1] (setting [5]) it was 12.5%; in data set [1] (setting [6]), 12.1%; in data set [1] (setting [7]), 27.8%; in data set [1] (setting [8]) it was 20%; in data set [1] (setting [9]) it was 38.6%. Besides, the “Deamidation of N83” value in data set [1] (setting [4]) was 19.4%; in data set [1] (setting [5]), 98.1%; in data set [1] (setting [6]), 93.9%; in data set [1] (setting [7]) it was 87.4%; in data set [1] (setting [8]), 98.1%; in data set [1] (setting [9]) it was 96.2%. Further, the “Deamidation of N137” value in data set [1] (setting [4]) was 1.0%; in data set [1] (setting [5]), 0.9%; in data set [1] (setting [6]), 2.6%; in data set [1] (setting [7]), 2.5%; in data set [1] (setting [8]) it was 0.9%; in data set [1] (setting [9]), 3.0%. The “TEER following disruption by HK E. coli” value in data set [2] (setting [10]) is 89.5%; in data set [2] (Example 15, 1 μg/ml, 6 hours pre-incubation, SG-11 = SEQ ID NO:9, HK E. coli alone 78.6%, FIG. 28) it was 89.5%; in data set [2] (SG-11 1 μg/ml added 6 hours prior to HK E. coli, HK E. coli alone 53.5%, FIG. 1B) it was 60.6%; in data set [2] (SG-11 (SEQ ID NO:5 or 9) 1 μg/ml (40 nM) added 30 minutes prior to HK E. coli, HK E. coli alone 55.8%, FIG. 1A), 62%.
